The substances below were run against MAPKAP Kinase II (MK2).

| Substance | % of … [SEQ ID NO: 124] Reaction Velocity at an Inhibitor Concentration of 100 µM |
| --- | --- |
| KALNRQLGdVAA (peptide) | 260% |
| KALNRQdLGVAA (peptide) | 357% |
| KALNRdQLGVAA (peptide) | 276% |
| KALNdRQLGVAA (peptide) | 306% |
| KALdNRQLGVAA (peptide) | 95% |

Reference: US9447158B2
